From US20240270874A1 (JIANGSU HENGRUI PHARMACEUTICALS, published 2024)

T1: human KLB on CHOK1-hKLB cells (human, UniProt Q86Z14 1-1044)
T1 construct: whole, on cells; also called human KLB antigen; β-Klotho
T1 sequence (looked up): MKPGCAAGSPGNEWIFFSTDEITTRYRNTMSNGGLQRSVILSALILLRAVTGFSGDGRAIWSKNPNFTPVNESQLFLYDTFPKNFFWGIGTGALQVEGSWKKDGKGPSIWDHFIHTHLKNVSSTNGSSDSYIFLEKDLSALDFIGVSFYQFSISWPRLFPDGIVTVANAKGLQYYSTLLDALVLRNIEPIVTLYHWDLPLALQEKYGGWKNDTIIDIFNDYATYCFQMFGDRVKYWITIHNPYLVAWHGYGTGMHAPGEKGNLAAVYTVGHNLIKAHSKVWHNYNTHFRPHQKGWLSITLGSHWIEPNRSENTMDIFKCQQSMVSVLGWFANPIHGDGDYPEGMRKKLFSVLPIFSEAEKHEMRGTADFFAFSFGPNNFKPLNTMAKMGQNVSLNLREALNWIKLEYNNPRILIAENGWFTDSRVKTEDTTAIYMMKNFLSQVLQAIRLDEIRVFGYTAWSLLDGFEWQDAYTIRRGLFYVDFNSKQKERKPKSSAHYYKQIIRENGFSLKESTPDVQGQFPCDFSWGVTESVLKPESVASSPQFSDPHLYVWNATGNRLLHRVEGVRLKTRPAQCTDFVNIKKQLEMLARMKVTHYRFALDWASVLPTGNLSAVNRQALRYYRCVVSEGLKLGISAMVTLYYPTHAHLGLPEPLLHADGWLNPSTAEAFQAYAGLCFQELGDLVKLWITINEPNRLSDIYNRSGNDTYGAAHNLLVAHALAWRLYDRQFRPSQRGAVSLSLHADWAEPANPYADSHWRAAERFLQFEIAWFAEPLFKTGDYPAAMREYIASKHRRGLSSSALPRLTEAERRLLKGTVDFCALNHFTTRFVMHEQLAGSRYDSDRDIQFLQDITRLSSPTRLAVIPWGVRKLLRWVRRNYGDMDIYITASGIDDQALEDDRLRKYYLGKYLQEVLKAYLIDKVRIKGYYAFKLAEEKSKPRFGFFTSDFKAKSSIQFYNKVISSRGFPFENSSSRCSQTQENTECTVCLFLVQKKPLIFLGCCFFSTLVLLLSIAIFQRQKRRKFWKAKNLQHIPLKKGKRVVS


target: T1, human KLB on CHOK1-hKLB cells; assay: flow cytometry on CHOK1-hKLB cells
Description: The above heavy chain variable regions were fused to the heavy chain constant region (set forth in SEQ ID NO: 22) and the light chain variable regions were fused to the light chain constant region (set forth in SEQ ID NO: 23) to construct anti-KLB antibodies, and the binding activity of the obtained antibodies for CHOK1-hKLB was detected (see Test Example 2 of the present disclosure for the experimental method).
The binding ability of the antibodies for CHOK1 cell strains CHOK1-hKLB and CHOK1-cynoKLB overexpressing human KLB and monkey KLB (see Example 1 for specific preparation procedure), respectively, was detected by flow cytometry. The specific procedure was as follows: the above cells were cultured in 10% FBS-containing IMDM medium and incubated in an incubator at 37° C. and 5% CO₂ for 2 days. The cells were then added to a cell plate at 1×10⁵ cells per well, centrifuged at 300 g for 5 min, and then washed once with 1% BSA. The antibody diluted in gradient was added to the cell plate at 100 μL per well, and the mixture was incubated at 4° C. for 1 h and washed once with 1% BSA. The diluted (1:400) APC-goat anti-human IgG Fc fluorescent secondary antibody was added at 100 μL per well, and the resulting mixture was incubated at 4° C. for 1 h. The plate was washed three times with 1% BSA, PBS was added at 100 μL per well, and the plate was read.

| Binder | EC50 [nM] |
| --- | --- |
| hAb99-6 (antibody, human IgG1, kappa, L234A L235A, humanized mAb-99: hAb99VH2 + hAb99VL2; human IgG1 (L234A, L235A) / kappa constant regions) heavy: not shown light: DIQMTQSPSSLSASVGDRVTITCRASKSISKFLAWFQQKPGKTNKLLIYSGSTLQSGVPSRFSGSGSGTDFTLTISSLQPEDFATYYCQQHNEYPWTFGGGTKVEIKRTVAAPSVFIFPPSDEQLKSGTASVVCLLNNFYPREAKVQWKVDNALQSGNSQESVTEQDSKDSTYSLSSTLTLSKADYEKHKVYACEVTHQGLSSPVTKSFNRGEC | 0.41 |
| hAb99-17 (antibody, human IgG1, kappa, L234A L235A, V domains shown, humanized mAb-99: hAb99VH2-NL + hAb99VL2; human IgG1 (L234A, L235A) / kappa constant regions) VH: EVQLVQSGAEVKKPGASVKVSCKASGYTFTNYGINWVRQAPGQGLEWMGYIYIGNLDIEYNAKFKGRVTITSDTSASTAYMELSSLRSEDTAVYYCARGRGLGHFDVWGQGTTVTVSS VL: DIQMTQSPSSLSASVGDRVTITCRASKSISKFLAWFQQKPGKTNKLLIYSGSTLQSGVPSRFSGSGSGTDFTLTISSLQPEDFATYYCQQHNEYPWTFGGGTKVEIKR | 0.43 |
| hAb99-5 (antibody, human IgG1, kappa, L234A L235A, V domains shown, humanized mAb-99: hAb99VH2 + hAb99VL1; human IgG1 (L234A, L235A) / kappa constant regions) VH: EVQLVQSGAEVKKPGASVKVSCKASGYTFTNYGINWVRQAPGQGLEWMGYIYIGNGDIEYNAKFKGRVTITSDTSASTAYMELSSLRSEDTAVYYCARGRGLGHFDVWGQGTTVTVSS VL: DIQMTQSPSSLSASVGDRVTITCRASKSISKFLAWYQQKPGKANKLLIYSGSTLQSGVPSRFSGSGSGTDFTLTISSLQPEDFATYYCQQHNEYPWTFGGGTKVEIKR | 0.5 |
| hAb99-9 (antibody, human IgG1, kappa, L234A L235A, V domains shown, humanized mAb-99: hAb99VH3 + hAb99VL1; human IgG1 (L234A, L235A) / kappa constant regions) VH: EVQLVQSGAEVKKPGASVKVSCKTSGYTFTNYGINWVRQAPGQGLEWMGYIYIGNGDIEYNAKFKGRVTITSDTSASTAYMELSSLRSEDTAVYFCARGRGLGHFDVWGQGTTVTVSS VL: DIQMTQSPSSLSASVGDRVTITCRASKSISKFLAWYQQKPGKANKLLIYSGSTLQSGVPSRFSGSGSGTDFTLTISSLQPEDFATYYCQQHNEYPWTFGGGTKVEIKR | 0.47 |
| hAb99-4 (antibody, human IgG1, kappa, L234A L235A, V domains shown, humanized mAb-99: hAb99VH1 + hAb99VL4; human IgG1 (L234A, L235A) / kappa constant regions) VH: EVQLVQSGAEVKKPGASVKVSCKASGYTFTNYGINWVRQAPGQRLEWMGYIYIGNGDIEYNAKFKGRVTITSDTSASTAYMELSSLRSEDTAVYYCARGRGLGHFDVWGQGTTVTVSS VL: DVQITQSPSSLSASVGDRVTITCRASKSISKFLAWFQEKPGKTNKLLIYSGSTLQSGIPSRFSGSGSGTDFTLTISSLQPEDFATYYCQQHNEYPWTFGGGTKVEIKR | 0.37 |

The next binders have a lower EC50 than those just listed; values first:

| EC50 [nM] | Binder |
| --- | --- |
| 0.35 | hAb99-7 (antibody, human IgG1, kappa, L234A L235A, humanized mAb-99: hAb99VH2 + hAb99VL3; human IgG1 (L234A, L235A) / kappa constant regions) heavy: not shown light: DVQITQSPSSLSASVGDRVTITCRASKSISKFLAWFQQKPGKTNKLLIYSGSTLQSGVPSRFSGSGSGTDFTLTISSLQPEDFATYYCQQHNEYPWTFGGGTKVEIKRTVAAPSVFIFPPSDEQLKSGTASVVCLLNNFYPREAKVQWKVDNALQSGNSQESVTEQDSKDSTYSLSSTLTLSKADYEKHKVYACEVTHQGLSSPVTKSFNRGEC |
| 0.35 | hAb99-2 (antibody, human IgG1, kappa, L234A L235A, humanized mAb-99: hAb99VH1 + hAb99VL2; human IgG1 (L234A, L235A) / kappa constant regions) heavy: not shown light: DIQMTQSPSSLSASVGDRVTITCRASKSISKFLAWFQQKPGKTNKLLIYSGSTLQSGVPSRFSGSGSGTDFTLTISSLQPEDFATYYCQQHNEYPWTFGGGTKVEIKRTVAAPSVFIFPPSDEQLKSGTASVVCLLNNFYPREAKVQWKVDNALQSGNSQESVTEQDSKDSTYSLSSTLTLSKADYEKHKVYACEVTHQGLSSPVTKSFNRGEC |
| 0.33 | hAb99-12 (antibody, human IgG1, kappa, L234A L235A, V domains shown, humanized mAb-99: hAb99VH3 + hAb99VL4; human IgG1 (L234A, L235A) / kappa constant regions) VH: EVQLVQSGAEVKKPGASVKVSCKTSGYTFTNYGINWVRQAPGQGLEWMGYIYIGNGDIEYNAKFKGRVTITSDTSASTAYMELSSLRSEDTAVYFCARGRGLGHFDVWGQGTTVTVSS VL: DVQITQSPSSLSASVGDRVTITCRASKSISKFLAWFQEKPGKTNKLLIYSGSTLQSGIPSRFSGSGSGTDFTLTISSLQPEDFATYYCQQHNEYPWTFGGGTKVEIKR |
